Source: IntAct's records for PubMed 27458164

B1: Src-like-adapter 2 (Mus musculus), Q8R4L0 (parent)
chain: MGSLSSRGKTSSPSPSSSGPDQEPVSMQPERHKVTAVALGSFPAGEQARLSLRLGEPLTIISEDGDWWTVQSEVSGREYHMPSVYVAKVAHGWLYEGLSREKAEELLLLPGNPGGAFLIRESQTRRGCYSLSVRLSRPASWDRIRHYRIQRLDNGWLYISPRLTFPSLHALVEHYSELADGICCPLREPCVLQKLGPLPGKDTPPPVTVPTSSLNWKKLDRSLLFLEAPASGEASLLSEGLRESLSSYISLAEDPLDDA

Variants of: B1
Conditions: with flt3_human FLT3, P36888
Chain of flt3_human FLT3, P36888 (P36888 whole entry): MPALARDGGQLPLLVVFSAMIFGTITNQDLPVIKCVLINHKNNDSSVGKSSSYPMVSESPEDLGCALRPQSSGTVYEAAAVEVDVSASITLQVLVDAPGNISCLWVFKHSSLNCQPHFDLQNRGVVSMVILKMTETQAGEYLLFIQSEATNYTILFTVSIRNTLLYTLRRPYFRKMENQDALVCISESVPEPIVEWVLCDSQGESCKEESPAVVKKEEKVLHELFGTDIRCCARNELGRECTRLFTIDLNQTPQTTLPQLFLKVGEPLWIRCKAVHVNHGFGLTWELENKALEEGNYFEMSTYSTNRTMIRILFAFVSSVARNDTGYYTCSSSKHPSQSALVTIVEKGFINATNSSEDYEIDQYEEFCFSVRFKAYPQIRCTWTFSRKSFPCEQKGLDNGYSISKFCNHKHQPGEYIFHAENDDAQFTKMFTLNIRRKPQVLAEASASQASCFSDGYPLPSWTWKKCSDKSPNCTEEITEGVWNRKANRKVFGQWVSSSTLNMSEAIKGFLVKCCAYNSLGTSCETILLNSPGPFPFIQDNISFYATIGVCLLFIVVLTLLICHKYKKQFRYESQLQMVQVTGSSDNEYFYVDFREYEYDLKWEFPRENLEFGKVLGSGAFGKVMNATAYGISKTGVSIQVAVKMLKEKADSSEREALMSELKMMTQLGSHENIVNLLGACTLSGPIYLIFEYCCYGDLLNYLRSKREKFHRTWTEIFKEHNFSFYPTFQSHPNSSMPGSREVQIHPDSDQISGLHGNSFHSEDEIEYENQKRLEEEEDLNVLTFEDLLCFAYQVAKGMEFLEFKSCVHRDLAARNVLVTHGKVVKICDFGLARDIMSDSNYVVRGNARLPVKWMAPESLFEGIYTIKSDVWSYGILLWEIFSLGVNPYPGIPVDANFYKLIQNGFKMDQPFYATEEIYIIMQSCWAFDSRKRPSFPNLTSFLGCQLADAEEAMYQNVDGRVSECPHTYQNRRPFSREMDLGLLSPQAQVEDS

Variant	effect of a mutation on the interaction
R120E	disrupting interaction
